Source: publication PMC6499331, “Transcriptional gene silencing requires dedicated interaction between HP1 protein Chp2 and chromatin remodeler Mit1” (Genes & Development, 2019)
Numbering of substitutions follows the chain as printed. Blank lines part the entries; values can stand above or below the binder they belong to.

Key:
[1] = target: T1, StrepSumo-tagged Mit1CII wild type (S. pombe, UniProt Q9P793 1-81); assay: ITC; 25°C; 400 mM NaCl, 50 mM Tris-HCl pH 7.5, 5 mM β-mercaptoethanol; Chp2 or Swi6 at 100 to 500 µM injected into the cell holding StrepSumo-tagged Mit1 constructs at 5 to 50 µM; VP-ITC or Nano ITC (Mit1CIIΔCDL); details: both partners purified
T1 construct: The Strep-SUMO tag was left on for stabilization; also called wild-type Mit1CII; source: E. coli BL21(DE3) or Rosetta (DE3), purified (Streptactin, SEC); not shown: Strep-SUMO, N-terminal, kept
T1 sequence (looked up): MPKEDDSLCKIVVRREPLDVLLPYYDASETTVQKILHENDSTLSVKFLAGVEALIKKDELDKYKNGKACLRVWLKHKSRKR

[2] = target: T2, StrepSumo-tagged Mit1CII with engineered PkVvL motif instead of CkIvV (S. pombe, UniProt Q9P793 1-81, PkVvL motif instead of CkIvV); assay: as above; details: both partners purified
T2 construct: Mit1, S. pombe, CII, residues 1-81; residues 9-13 CKIVV changed to PKVVL; also called Mit1 PxVxL substitution mutant; PxVxL substitution; source: E. coli BL21(DE3) or Rosetta (DE3), purified (Streptactin, SEC); not shown: Strep-SUMO, N-terminal, kept
T2 sequence (looked up): T1 sequence (looked up) with C9P, I11V, V13L

[3] = target: T3, StrepSumo-tagged Mit1CII I11R (S. pombe, UniProt Q9P793 1-81, I11R); assay: as above; details: both partners purified
T3 construct: Mit1, S. pombe, CII, residues 1-81, I11R; also called Mit1I11R; Mit1 I11R; source: E. coli BL21(DE3) or Rosetta (DE3), purified (Streptactin, SEC); not shown: Strep-SUMO, N-terminal, kept
T3 sequence (looked up): T1 sequence (looked up) with I11R

[4] = target: StrepSumo-tagged Mit1CIIΔCDL (S. pombe); assay: as above
[5] = target: T4, Mit1(1-81), Chp2 interaction interface (CII), tag removed (S. pombe, UniProt Q9P793 1-81); assay: crystal structure; Mit1(1-81)–Chp2(316-380), coexpressed in E. coli, purified as a complex; hanging drops at 18°C, 2.4 M sodium malonate pH 7, 3% 1,6-hexanediol; 1.6 Å; details: both partners purified
T4 construct: Mit1, S. pombe, residues 1-81 (CkIvV motif 9-13, linker 15-31, CD-like domain); Density is seen for residues 8-81; also called Mit1CII; source: E. coli BL21(DE3) or Rosetta (DE3), coexpressed with Chp2CSD, purified as a complex (Streptactin, Ulp1, SEC); not shown: Strep-SUMO, N-terminal, cleaved
T4 sequence (looked up): T1 sequence (looked up)

[6] = target: the molecule itself; assay: as above

- Kd [1]: 0.0026 µM
- Kd [2]: 0.0082 µM
- Kd [3]: 21.5 µM
- Kd [4]: 2200 nM
B1: Chp2CSD (expressed alone, tag removed, for ITC) (domain or fragment, S. pombe)
chain: KPPFQKKSWEDLVDCVKTVQQLDNGKLIAKIKWKNGYVSTHDNIIIHQKCPLKIIEYYEAHIKFT
notes: Chp2, S. pombe, chromoshadow domain (CSD); limits 316-380 are printed for the crystallised CSD construct, not for the ITC sample; source: E. coli BL21(DE3) or Rosetta (DE3), purified (Streptactin, Ulp1, MonoS); not shown: Strep-SUMO, N-terminal, cleaved

- stoichiometry N [5]: 2 Chp2CSD chains per Mit1
B2: Chp2CSD, Chp2(316-380), untagged, coexpressed with Mit1 fragments (domain or fragment, S. pombe, UniProt O42934 316-380, looked up)
chain: B1 chain
notes: Chp2, S. pombe, chromoshadow domain, residues 316-380; Cloned without tag into pACE2 for coexpression; Limits 316-380 are printed for the crystallised complex; also called chromo shadow domain of Chp2; Chp2CSD2; source: E. coli BL21(DE3) or Rosetta (DE3), coexpressed with Mit1 fragments, purified as a complex
- stoichiometry N [6]: 2

- Kd [1]: 28 µM
- Kd [2]: 15 µM
B3: Swi6CSD (domain or fragment, S. pombe, UniProt P40381 267-328, looked up)
chain: DSWEDLVSSIDTIERKDDGTLEIYLTWKNGAISHHPSTITNKKCPQKMLQFYESHLTFRENE
notes: Swi6, HP1 protein, S. pombe, chromoshadow domain (CSD); A crystal structure of the free Swi6CSD dimer (PDB 1E0B) is cited; also called Swi6 chromoshadow domain; source: E. coli BL21(DE3) or Rosetta (DE3), purified (Streptactin, on-column Ulp1 cleavage, SEC); not shown: Strep-SUMO, N-terminal, cleaved
